Key:
[1] = target: T1, Mushroom tyrosinase (mushroom, UniProt C7FF04 1-392); assay: cell-based or functional assay
[2] = target: T1, Mushroom tyrosinase; assay: cell-based or functional assay; remark: listed apart in the source

T1 sequence (C7FF04 1-392): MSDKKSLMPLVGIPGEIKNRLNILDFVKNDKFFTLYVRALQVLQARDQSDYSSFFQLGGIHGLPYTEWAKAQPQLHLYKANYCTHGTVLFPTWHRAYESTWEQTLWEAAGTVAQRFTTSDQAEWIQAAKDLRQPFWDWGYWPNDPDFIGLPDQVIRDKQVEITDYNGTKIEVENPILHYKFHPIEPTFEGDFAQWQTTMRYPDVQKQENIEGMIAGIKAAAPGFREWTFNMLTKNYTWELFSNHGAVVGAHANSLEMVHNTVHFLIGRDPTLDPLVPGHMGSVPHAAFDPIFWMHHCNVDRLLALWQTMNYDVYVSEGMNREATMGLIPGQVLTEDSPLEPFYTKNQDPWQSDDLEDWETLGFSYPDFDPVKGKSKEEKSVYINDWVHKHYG

Binder	IC50 (inhibition of mushroom tyrosinase, dopachrome absorbance at 475 nM) [1] [µM]	IC50 (inhibition of mushroom tyrosinase) [2] [µM]
KFEKKFEK [KFEKKFEK (KF peptide)]	3600	–
YRSRKYSSWY [YRSRKYSSWY (YR peptide)]	40	40
